Where no end group is shown, it is not given here.
Experiments:
[1] = target: extra domain B of oncofetal human fibronectin (ED-B) (human) (UniProt P02751); experiment: SPR, ED-B immobilised on the chip, pH 7.3, 1:1 Langmuir fit
[2] = target: human serum albumin (human) (UniProt P02768); experiment: SPR, HSA immobilised on the chip, pH 7.3, 1:1 Langmuir fit
[3] = target: extra domain B of oncofetal human fibronectin (ED-B) (human) (UniProt P02751); experiment: SPR
[4] = target: mouse serum albumin (mouse) (UniProt P07724); experiment: SPR
Chain of mouse serum albumin (mouse) (P07724 25-608 limits assumed): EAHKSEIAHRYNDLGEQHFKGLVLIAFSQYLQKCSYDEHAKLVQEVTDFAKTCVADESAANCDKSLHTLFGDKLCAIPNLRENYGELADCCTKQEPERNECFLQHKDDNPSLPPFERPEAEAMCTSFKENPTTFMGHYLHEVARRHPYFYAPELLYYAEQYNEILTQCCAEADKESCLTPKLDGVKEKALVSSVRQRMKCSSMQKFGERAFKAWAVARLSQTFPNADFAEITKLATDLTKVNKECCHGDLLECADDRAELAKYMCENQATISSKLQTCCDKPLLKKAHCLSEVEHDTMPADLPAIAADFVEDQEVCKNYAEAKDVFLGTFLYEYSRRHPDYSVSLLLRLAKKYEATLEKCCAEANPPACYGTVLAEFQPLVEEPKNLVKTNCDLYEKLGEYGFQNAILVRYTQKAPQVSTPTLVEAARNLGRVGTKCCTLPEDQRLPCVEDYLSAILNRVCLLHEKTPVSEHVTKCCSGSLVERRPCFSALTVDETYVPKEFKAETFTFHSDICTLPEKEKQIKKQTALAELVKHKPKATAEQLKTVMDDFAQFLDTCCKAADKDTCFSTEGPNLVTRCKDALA

[5] = target: human serum albumin (human) (UniProt P02768); experiment: SPR
[6] = target: hFAP-Fc (human) (UniProt Q12884); experiment: SPR, Fc-tagged FAP captured on immobilised protein A, pH 7.3, 1:1 Langmuir fit
Chain of hFAP-Fc (human) (Q12884 26-760 limits assumed): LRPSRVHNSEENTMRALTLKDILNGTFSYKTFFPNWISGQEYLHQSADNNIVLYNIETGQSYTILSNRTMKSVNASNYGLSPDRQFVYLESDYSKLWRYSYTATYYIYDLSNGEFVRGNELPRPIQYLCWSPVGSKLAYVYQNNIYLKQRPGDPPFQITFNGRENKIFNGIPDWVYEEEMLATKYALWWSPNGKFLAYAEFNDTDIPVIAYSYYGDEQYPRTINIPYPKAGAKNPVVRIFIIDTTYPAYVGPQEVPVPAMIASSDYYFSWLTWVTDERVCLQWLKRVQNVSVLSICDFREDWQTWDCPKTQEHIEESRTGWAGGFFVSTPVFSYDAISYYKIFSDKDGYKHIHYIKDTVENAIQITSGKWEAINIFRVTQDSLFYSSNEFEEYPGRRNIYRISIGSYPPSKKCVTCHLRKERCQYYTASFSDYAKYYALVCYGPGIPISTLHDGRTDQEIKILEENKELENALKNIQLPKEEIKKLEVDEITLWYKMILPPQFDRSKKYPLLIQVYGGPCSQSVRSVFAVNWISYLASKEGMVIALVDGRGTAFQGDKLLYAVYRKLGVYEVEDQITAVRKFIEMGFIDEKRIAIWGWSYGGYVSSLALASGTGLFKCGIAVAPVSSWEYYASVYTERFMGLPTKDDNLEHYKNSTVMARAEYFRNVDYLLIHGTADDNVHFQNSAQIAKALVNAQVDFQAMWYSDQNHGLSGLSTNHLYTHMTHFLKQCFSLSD

Chain of extra domain B of oncofetal human fibronectin (ED-B) (human) (P02751 1266-1356 limits assumed): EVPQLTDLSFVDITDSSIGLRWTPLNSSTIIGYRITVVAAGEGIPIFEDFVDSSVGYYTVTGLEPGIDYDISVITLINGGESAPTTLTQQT
Chain of human serum albumin (human) (P02768 25-609 limits assumed): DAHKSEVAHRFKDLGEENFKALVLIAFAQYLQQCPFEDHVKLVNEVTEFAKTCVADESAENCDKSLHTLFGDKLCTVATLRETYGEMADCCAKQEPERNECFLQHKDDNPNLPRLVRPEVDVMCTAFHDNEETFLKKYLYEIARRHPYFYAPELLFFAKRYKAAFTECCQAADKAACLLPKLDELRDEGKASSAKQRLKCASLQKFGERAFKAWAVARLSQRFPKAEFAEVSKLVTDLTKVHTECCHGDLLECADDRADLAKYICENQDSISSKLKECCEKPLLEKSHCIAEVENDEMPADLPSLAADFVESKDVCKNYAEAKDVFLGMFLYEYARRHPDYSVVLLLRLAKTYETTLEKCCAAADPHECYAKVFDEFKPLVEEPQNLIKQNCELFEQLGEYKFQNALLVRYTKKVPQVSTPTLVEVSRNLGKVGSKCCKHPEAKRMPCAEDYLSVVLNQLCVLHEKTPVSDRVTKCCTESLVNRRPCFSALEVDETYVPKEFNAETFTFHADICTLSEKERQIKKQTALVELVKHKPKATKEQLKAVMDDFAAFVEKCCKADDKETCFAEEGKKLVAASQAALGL

Kd [1] [nM]	Kd [2] [nM]	Binder	other results
0.2	1.4	LAEAKVLALKELDKYGISNYYKNLINNAKTVEGVKALKEAIVAALP (designed binder, part only; not given: ED-B binding domain, linkers, tags, part only, also: fusion protein, linkers and tags not given here) [219087]	–
–	–	LAEAKVLALKELDKYGISNYYKNLINNAKTVEGVKALKEAIVAALP (designed binder, part only; not given: ED-B binding domain, linker, part only, also: DOTA coupled, site not given here, Lu loaded) [ED-B specific fusion protein 219087 DOTA Lu]	Kd [3]: < 1 nM; Kd [4]: 1.3 nM; Kd [5]: 1.3 nM
–	3.8	LAEAKVLALKELDKYGISNYYKNLINNAKTVEGVKALKEAIVAA (designed binder, part only; not given: FAP binding domain, linkers, tags, part only) [221191]	Kd [6]: 3.8 nM
0.2	2.6	LAEAKVLALKELDKYGISNYYKNLINNAKTIEGVKALKAAIVAA (designed binder, part only; not given: ED-B binding domain, linkers, tags, part only) [215663]	–
0.1	5	LAEAKVLALKELDKYGISNYYKNLINNAKTIEGVEALKEAIVAA (designed binder, part only; not given: ED-B binding domain, linkers, tags, part only) [215674]	–
0.7	3.4	LAEAKVLALKELDKYGISNYYKNLINNAKTIEGVKALKEAIVAA (designed binder, part only; not given: ED-B binding domain, linkers, tags, part only) [215670]	–
0.1	3.3	LAEAKVLALKELDKYGISNYYKNLINNAKTIEGVEALKDAIVAA (designed binder, part only; not given: ED-B binding domain, linkers, tags, part only) [215673]	–
0.6	1.1	LAEAKVLALKELDKYGISNYYKNLINNAKTIEGVEALKDAILAA (designed binder, part only; not given: ED-B binding domain, linkers, tags, part only) [215675]	–
0.4	3.8	LAEAKVLALKELDKYGISNYYKNLINNAKTIEGVKALKDQIVAA (designed binder, part only; not given: ED-B binding domain, linkers, tags, part only) [215661]	–
0.1	7.3	LAEAKVLALKELDKYGISNYYKNLINNAKTIEGVKALKDEIVAA (designed binder, part only; not given: ED-B binding domain, linkers, tags, part only) [215671]	–
0.1	1.5	LAEAKVLALKELDKYGISNYYKNLINNAKTVEGVKALKEAIVAA (designed binder, part only; not given: ED-B binding domain, linkers, tags, part only) [217806]	–
0.1	3	LAEAKVLALKELDKYGISNYYKNLINNAKTIEGVKALKAQILAA (designed binder, part only; not given: ED-B binding domain, linkers, tags, part only) [215665]	–
–	7.9	LAEAKVLALKELDKYGISNYYKNLINNAKTIEGVKALKDEIVAA (designed binder, part only; not given: FAP binding domain, linkers, tags, part only) [221215]	Kd [6]: 8 nM
–	13.4	LAEAKVLALKELDKYGISNYYKNLINNAKTIEGVEALKAQIVAA (designed binder, part only; not given: ED-B binding domain, linkers, tags, part only) [215659]	–
–	2.4	LAEAKVLAIKELDKAGISDYYFNLINNAKTVEGVKALKAQIVAA (designed binder, part only; not given: ED-B binding domain, linkers, tags, part only) [215035]	–
0.4	4.1	LAEAKVLALKELDKYGISNYYKNLINNAKTIEGVKALKAQIVAA (designed binder, part only; not given: ED-B binding domain, linkers, tags, part only) [215652]	–
–	1.7	LAEAKVLAIKELDKAGISNYYFNLINNAKTIEGVKALKAQIVAA (designed binder, part only; not given: ED-B binding domain, linkers, tags, part only) [215055]	–
0.3	12.5	LAEAKVLAIKELDKAGISNYYFNLINNAKTVEGVKALKAQIVAA (designed binder, part only; not given: ED-B binding domain, linkers, tags, part only) [219089]	–
–	19.9	LAEAKVLAIKELDKAGISDYYFNLINNAKTVDGVKALKAQIVAA (designed binder, part only; not given: ED-B binding domain, linkers, tags, part only) [215037]	–
–	2.2	LAEAKVLAIKELDKAGISDYYFNLINNAKTIEGVKALKAQIVAA (designed binder, part only; not given: ED-B binding domain, linkers, tags, part only) [215039]	–
–	7.9	LAEAKVLAIKELDKAGISNYYFNLINNAKTVEGVKDLKAQIVAA (designed binder, part only; not given: ED-B binding domain, linkers, tags, part only) [215052]	–
0.1	0.8	LAEAKVLALKELDKYGISNYYKNLIDKAKTIEGVEALKDAILAA (designed binder, part only; not given: ED-B binding domain, linkers, tags, part only) [215680]	–
